Reference: US20230056486
“And” between values parts separate entries of the source, which are not always exact repeats. Equal values may be shown once.

Target: T1, (GR)10 dipeptide repeat peptide
T1 chain: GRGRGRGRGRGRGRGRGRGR

B1: clostripain (protein)
chain: NKNQKVTIMYYCDADNNLEGSLLNDIEEMKTGYKDSPNLNLIALVDRSPRYSSDEKVLGEDFSDTRLYKIEHNKANRLDGKNEFPEISTTSKYEANMGDPEVLKKFIDYCKSNYEADKYVLIMANHGGGAREKSNPRLNRAICWDDSNLDKNGEADCLYMGEISDHLTEKQSVDLLAFDACLMGTAEVAYQYRPGNGGFSADTLVASSPVVWGPGFKYDKIFDRIKAGGGTNNEDDLTLGGKEQNFDPATITNEQLGALFVEEQRDSTHANGRYDQHLSFYDLKKAESVKRAIDNLAVNLSNENKKSEIEKLRGSGIHTDLMHYFDEYSEGEWVEYPYFDVYDLCEKINKSENFSSKTKDLASNAMNKLNEMIVYSFGDPSNNFKEGKNGLSIFLPNGDKKYSTYYTSTKIPHWTMQSWYNSIDTVKYGLNPYGKLSWCKDGQDPEINKVGNWFELLDSWFDKTNDVTGGVNHYQW
  (GR)10 concentration left at 0 min (LC/MS; 50 µM start; TFA added before enzyme): 39.7 µM and 37.9 µM
  (GR)10 concentration left at 30 min (LC/MS; 50 µM start): BLQ
  (GR)10 concentration left at 60 min (LC/MS; 50 µM start): BLQ
  (GR)10 concentration left at 120 min (LC/MS; 50 µM start): BLQ
  (GR)10 left in CSF; Clostripain + DTT-Immobilized-5 min reaction (LC/MS; 200 µM (GR)10 in human CSF) (normalized µM): 58
  (GR)10 left in CSF; Clostripain + DTT-Immobilized-60 min reaction (LC/MS; 200 µM (GR)10 in human CSF) (normalized µM): -0
  (GR)10 left in CSF; Clostripain-Immobilized-5 min reaction, no DTT (LC/MS; 200 µM (GR)10 in human CSF) (normalized µM): 395
  (GR)10 left in CSF; Clostripain-Immobilized-60 min reaction, no DTT (LC/MS; 200 µM (GR)10 in human CSF) (normalized µM): -0
  (GR)10 left; Clostripain + DTT-Immobilized-5 min reaction (LC/MS) (µM (normalized to GR concentration)): -0
  (GR)10 left; Clostripain + DTT-immobilized-60 min reaction (LC/MS) (µM (normalized to GR concentration)): -0
  (GR)10 left; Clostripain + DTT-in solution-5 min reaction (LC/MS) (µM (normalized to GR concentration)): 5.7
  (GR)10 left; Clostripain + DTT-in solution-60 min reaction (LC/MS) (µM (normalized to GR concentration)): -0
  (GR)10 left; Clostripain + DTT-resin wash from 5 min reaction (LC/MS) (µM (normalized to GR concentration)): -0
  (GR)10 left; Clostripain + DTT-resin wash from 60 min reaction (LC/MS) (µM (normalized to GR concentration)): -0
  (GR)10 left; Clostripain-Immobilized-5 min reaction, no DTT (LC/MS): 0 µM
  (GR)10 left; Clostripain-immobilized-60 min reaction, no DTT (LC/MS): 0 µM
  (GR)10 left; Clostripain-in solution-5 min reaction, no DTT (LC/MS): 12.4 µM
  (GR)10 left; Clostripain-in solution-60 min reaction, no DTT (LC/MS): 0 µM
  (GR)10 left; Clostripain-resin wash from 5 min reaction, no DTT (LC/MS): 0 µM
  (GR)10 left; Clostripain-resin wash from 60 min reaction, no DTT (LC/MS): 0 µM

B2: Proteinase K (protein)
chain: AAQTNAPWGLARISSTSPGTSTYYYDESAGQGSCVYVIDTGIEASHPEFEGRAQMVKTYYYSSRDGNGHGTHCAGTVGSRTYGVAKKTQLFGVKVLDDNGSGQYSTIIAGMDFVASDKNNRNCPKGVVASLSLGGGYSSSVNSAAARLQSSGVMVAVAAGNNNADARNYSPASEPSVCTVGASDRYDRRSSFSNYGSVLDIFGPGTSILSTWIGGSTRSISGTSMATPHVAGLAAYLMTLGKTTAASACRYIADTANKGDLSNIPFGTVNLLAYNNYQA
  (GR)10 concentration left at 0 min (LC/MS; 50 µM start; TFA added before enzyme): 44.9 µM and 49.4 µM
  (GR)10 concentration left at 2.5 min (LC/MS; 50 µM start): 55.8 µM and 55.4 µM
  (GR)10 concentration left at 5 min (LC/MS; 50 µM start): 54.4 µM and 48.8 µM
  (GR)10 concentration left at 10 min (LC/MS; 50 µM start): 50.3 µM and 44.1 µM
